Assay results: patent US12397061B2, “Systems, methods, and compositions for the generation of water-soluble cannabinoids utilizing fatty-acid binding proteins and fatty-acid binding-like proteins as cannabinoid-carriers” (Trait Biosciences, Inc., priority 2019, dated 2025)

B1: Chicken FABP7 WT: Wild type chicken (Gallus gallus) FABP7, SEQ ID NO. 74 (protein, listed as Gallus gallus)
chain: MVEAFCATWKLADSHNFDEYMKALGVGFAMRQVGNVTKPTVIISSEGDKVVIRTQSTFKNTEISFKLGEEFDETTPDDRNCKSVVTLDGDKLVHVQKWDGKETNFVREIKDGRMVMTLTFGDVVAVRHYEKA
B2: mdl_r5_0225_ro: Engineered chicken (Gallus gallus) FABP7 variant selected by Rosetta score, SEQ ID NO. 79 (protein, listed as Gallus gallus)
chain: MVEAFCATWKLADSHNMDEALKAWGVGFAIRQVANVTKPTVIISSEGDKVVIRMQSTFKNTEISFKLGEEFDETTADDRNCKSVVTLDGDKLVHVQKWDGKETNVVREIKDGRMVMTVTFGDVVAVRHYEKA
B3: mdl_r5_1652_ro: Rosetta-engineered pig (Sus scrofa) FABP1 variant, SEQ ID NO. 81 (protein, listed as Sus scrofa)
chain: MNFSGKYQVQSQENFEAFMKAVGQPDELIQKGKDIKGTSEIVQNGKHFKVTITTGSKVVQAEFTLGEECEAETDTGEKVKVVVQLEGDNKAVVTAKGIKAVFELNGDIITATATLGDIVFKRISKR
B4: mdl_r3_1403_sm: Engineered chicken (Gallus gallus) FABP7 variant selected by Smina score, SEQ ID NO. 80 (protein, listed as Gallus gallus)
chain: MVEAFCATWKLADSHNQDEGLKALGVGFAMRQLFNVDKPTVIISSEGDKVVIRIEGTVKNTEISFKLGEEFDETTADDRNCKSVVTLDGDKLVHVQKWDGKETNVVREIKDGRMVATFTFGDVVAVAHYEKA
B5: Plant FABP WT: Wild type FABP from the plant Rhodamnia argentea, SEQ ID NO. 77 (protein, listed as Rhodamnia argentea)
chain: MTEFAGVYEFVKDDGKFEEILKAMDVNFLIRKVAGKMNPNTAIDVLDDGKMAFKTITPLKTVEIHFELGKEYENKRLDGTVVKGIVTRDGNKLIQEQMSEPKFKVIRELDGPEKLIVTWMCKDIVCVREYKRIQT

How the values were obtained:
cannabinoid receptor = conditions: cited from earlier work
[1] = FABP binding to cannabinoids by ANS displacement (CBD as ligand); conditions: for binding to CBD by ANS displacement: 2 uM protein, 20 uM ANS, 33 uM CBD, decrease in fluorescence vs protein without ligand
[2] = FABP binding to cannabinoids by ANS displacement (THC as ligand); conditions: for binding to THC by ANS displacement: 2 uM protein, 20 uM ANS, 33 uM THC, decrease in fluorescence vs protein without ligand
[3] = listed as Wild type FABP from chicken

| Molecule | binding to CBD by ANS displacement [1] | binding to THC by ANS displacement [2] | other results |
| --- | --- | --- | --- |
| C=C(C)[C@@H]1CCC(C)=C[C@H]1c1c(O)cc(CCCCC)cc1O [CBD, cannabidiol] |  |  | affinity for the cannabinoid receptor (cannabinoid receptor): do not have significant affinity |
| B1 | no, or negligible binding | no, or negligible binding | binding to CBD by ANS displacement [1, 3]: no binding; binding to THC by ANS displacement [2, 3]: no binding |
| B2 | binding to CBD | not THC |  |
| B3 |  |  | binding to CBD relative to the wild type based on relative change in fluorescence ([1]; FIG. 7, ANS displacement): improved binding; binding to THC relative to the wild type based on relative change in fluorescence ([2]; FIG. 7, ANS displacement): improved binding |
| B4 | no binding | no binding |  |
| B5 | bind | bind |  |
